Laboratory results: publication doi:10.1101/466938v1

B1: CaTMPK (Candida albicans SC5314) (protein)
chain: MARGQLILIEGLDRSGKSTQASILSTKLSPSKLIKFPDRSTPIGKLINEYLTNKSFTLSDQAAHLLFSANRWELSQQIQDLLNQGYFIILDRYIYSGIAYTLAKNDFHDETISQGKNKQQLNNIDWLLSPDKGLPKPDLTLFLTLDLEEISKRKGWGDERYELQQFQAKVKQCFLEILDTNKDPTIRIVDVGGKTIDQVTTQLWEIIETNKNHELINDSIQFIT
B2: hTMPK (Homo sapiens) (protein)
chain: MAARRGALIVLEGVDRAGKSTQSRKLVEALCAAGHRAELLRFPERSTEIGKLLSSYLQKKSDVEDHSVHLLFSANRWEQVPLIKEKLSQGVTLVVDRYAFSGVAFTGAKENFSLDWCKQPDVGLPKPDLVLFLQLQLADAAKRGAFGHERYENGAFQERALRCFHQLMKDTTLNWKMVDASKSIEAVHEDIRVLSEDAIRTATEKPLGELWK

Assays:
NADH-coupled assay [1] = substrate: Cc1cn([C@H]2C[C@H](O)[C@@H](COP(=O)(O)O)O2)c(=O)[nH]c1=O; assay: NADH-coupled assay; assay type: biochemical, Candida albicans; details: 500 μM ATP, 100 mM Tris-HCl, 100 mM KCl, 10 mM MgCl2
NADH-coupled assay [2] = substrate: Cc1cn([C@H]2C[C@H](O)[C@@H](COP(=O)(O)O)O2)c(=O)[nH]c1=O; assay: NADH-coupled assay; assay type: biochemical, Homo sapiens; details: 500 μM ATP, 100 mM Tris-HCl, 100 mM KCl, 10 mM MgCl2

Protein | Km (NADH-coupled assay [1]) [µM] | kcat (NADH-coupled assay [1]) [min⁻¹] | Km (NADH-coupled assay [2]) [µM] | kcat (NADH-coupled assay [2]) [min⁻¹]
B1 | 24.1 ± 3.2 | 320.8 ± 7.1 |  | 
B2 |  |  | 16.3 ± 2.3 | 21.1 ± 0.6
